Test results: US20220387578A1 (VANDERBILT UNIVERSITY, published 2022)

Columns and labels:
eHead_H1_g2.10_mC = target: T1, eHead_H1_g2.10_mC; assay: SPR; y axis without title or unit
T1 chain: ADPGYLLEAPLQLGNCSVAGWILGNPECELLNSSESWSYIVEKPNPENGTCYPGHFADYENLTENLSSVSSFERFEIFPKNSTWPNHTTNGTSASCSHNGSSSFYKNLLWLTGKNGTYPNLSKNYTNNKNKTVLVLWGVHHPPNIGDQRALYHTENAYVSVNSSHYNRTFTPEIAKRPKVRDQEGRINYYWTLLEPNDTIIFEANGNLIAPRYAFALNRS

eHead_H1_v3.0_mC = target: T2, eHead_H1_v3.0_mC; assay: SPR; y axis without title or unit
T2 engineered HA head domain: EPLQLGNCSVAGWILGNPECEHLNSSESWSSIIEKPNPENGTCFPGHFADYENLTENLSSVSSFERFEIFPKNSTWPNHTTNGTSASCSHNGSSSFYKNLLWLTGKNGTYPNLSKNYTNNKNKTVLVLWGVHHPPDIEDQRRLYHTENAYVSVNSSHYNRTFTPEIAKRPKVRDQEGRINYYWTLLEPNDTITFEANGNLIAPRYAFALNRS

eHead_H1_v3.1_KO3_mC = target: T3, eHead_H1_v3.1_KO3_mC; assay: SPR
T3 chain: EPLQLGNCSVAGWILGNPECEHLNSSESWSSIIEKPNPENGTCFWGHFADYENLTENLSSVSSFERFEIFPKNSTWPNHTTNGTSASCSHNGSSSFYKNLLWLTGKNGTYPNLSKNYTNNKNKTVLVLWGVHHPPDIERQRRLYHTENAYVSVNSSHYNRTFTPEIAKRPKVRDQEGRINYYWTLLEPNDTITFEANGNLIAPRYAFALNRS

eHead_H1_v3.1_KO1_mC = target: T4, eHead_H1_v3.1_KO1_mC; assay: SPR
T4 chain: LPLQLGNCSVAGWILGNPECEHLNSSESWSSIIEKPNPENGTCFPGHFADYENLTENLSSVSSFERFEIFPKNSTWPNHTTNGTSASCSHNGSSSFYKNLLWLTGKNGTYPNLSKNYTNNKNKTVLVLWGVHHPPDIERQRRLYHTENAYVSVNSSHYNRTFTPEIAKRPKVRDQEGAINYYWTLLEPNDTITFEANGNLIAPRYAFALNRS

B1: FluA20 (as used in the SPR experiments of Example 4) (antibody, V domains shown)
VH: QVQLQESGPGLVKPSETLSLTCSVSGVSVTSDIYYWTWIRQPPGKGLEWIGYIFYNGDTNYNPSLKSRVTMSIDTSKNEFSLRLTSVTAADTAVYFCARGTEDLGYCSSGSCPNHWGQGTLVTVSS
VL: DIQMTQSPSSLSASIGDRVTITCRPSQNIRSFLNWFQHKPGKAPKLLIYAASNLQSGVPSRFSGSGSGTEFTLTIRSLQPEDFATYYCQQSYNTPPTFGQGTKVEIK
B1: binds (eHead_H1_g2.10_mC); binds (eHead_H1_v3.0_mC); no binding (eHead_H1_v3.1_KO3_mC). B1: no binding (eHead_H1_v3.1_KO1_mC).
